The DeepSol protein solubility set

Experiment: soluble on expression in E. coli; label from the status in PepcDB or PDB records

Sequence | soluble on expression in E. coli
MGHHHHHHSHDHYGCKQCSSLRSIQNLNSLVDKTSWIPSSVAEALGIVPLQYVFVMTFTLDDGTGVLEAYLMDSDKFFQIPASEVLMDDDLQKSVDMIMDMFCPPGIKIDAYPWLECFIKSYNVTNGTDNQICYQIFDTTVAEDVI | not soluble
MAHHHHHHMKGGKQKFDRAIHKTEGMDGALPNEVLEPLEEVYKPSLRVDVTAEPPEENENSTGTTPVTSVTPHVSTNIFVAGLPPSWDENDLRKKFQEFGEIISTRLVRQRHFAFVMFRRPESAHAAINATHLTHPTPNSSMFLHVSIAMHDEGVDEIPNDRIFIRGLPQWANKDHLRHCFSRFGSIVDSAVLMNPLGQCKGSGFVQFSSIDEATEAIKARKTIRIENWDAELEIKYSETAEVRQQRQERNKNRQRHSPKYGQHQLQYQLFNSSASVVSPIPAFPVLGMSAPFPFFYPRPALSPAASPHIIYSPMVPSPVVPVYPSPPVVFKSKLDLFPSSGDLLFTGVSLTESTLLSLLQCYGKVESKDIFDDAGAAVRMVDRGLHAIIVQQLNGTIFPDGKVMSVVLYP | not soluble
MSLGRQEMDEHVAIETPYAIALNDRVIGSSMVLPVDLEEFGAGFLFGQGYIKKAEEIREILVCPQGRISVYADVENEEPREVIITSGCGGTGKIPKEMLEGEFAPLADYCLPFAEIKSFIREALHSSPLGPQTHCVHGCGLWNNGRLQVYHEDVGRHNAVDKVLGSILLGRASNNSAVYTTGRLTSDMVLKCARIGIPIIMSRTSPSSLGLALAKRSGATLVAYSRPERINVFNAPERILTEGHHHHHH | not soluble
MGSDKIHHHHHHMPELATREFWKDLQPIPDCFKPDAKPEVYLRNAPTEDERLYVPFTETVKSRPLWISPSENRWCDILMATSAGLVNRHYHPHEVFAYTISGKWGYLEHDWTATAGDFVYETPGEGHTLVAYEHEQPMRAFFIVKGPLVWLDEKGNADGIFDVHDYIAMCREHYDKIGVGAAYIDSLFR | not soluble
MGSDKIHHHHHHMGRVLIIGAGGVGTVVAHKVAQNADVFTDIMIASRTKEKCDNIVKAIGNPNIKTAKVDADNVDELVALFNDFKPEMVINVALPYQDLTIMEACLKAGVNYLDTANYEPKDEAHFEYSWQWAYHDRFKEAGLTAILGCGFDPGVSGIYTAYAAKHYFDEIQYLDIVDCNAGNHHKAFATNFNPEINIREITQNGRYYENGQWVTTGPLEIHKDLTYPNIGPRDSYLLYHEELESLVKHFPTIKRARFWMTFGQEYLTHLRVIQNIGMARIDEVDYNGTKIVPLQFLKAVLPNPQDLGENYEGETSIGCRIRGIKDGKERTYYVYNNCSHQEAYKETGMQGVSYTTGVPAMIGAMMFFKGEWQRPGVNNVEEFNPDPFMEQLNKQGLPWHEVFDKDLEL | not soluble
MSLEQLATTSQQEILAERPQLTTKIAVDLDVKGIKEKDEDAWQNVQIYLAQINNEYADGSERYQYLVQTTVDKALRAKGYYNSQYQFVKTVSAEQKPLLTLNVQLDNQKVTIDEVDIQLQGDANTDEDFIELKKTAPNQGDSLAHNAYDDFKSHIEGLAFKKGYFDGQWLYHRLEVYPQNHSVDWRLAYDSGKRYRYGEINFIDNQIKEEYLTNILKIAPQQYYYASDLSLMTADYLSSNWFSSVLVEPKLNEKAKLVDLKIFFQPKKKNKVEIGAGFATQLGARLQLNWKKPWLNERGHSIDSRTYLSLPEQTLELGYNVPLRQNPLHYYYQFSGSLEHQNQQDTKSIAGSFGLQRFWTHETGWSFSAGIKSRYDSFTQANDKHKTLLVYPTAALNRTQTDGNRFPLWGDSQRITVNWGAKIFGSDVSFYSWKASSTWVRTYLDRHRLFLRGEVGQVHTKDFHQIPPTLRYFAGGDMSIRGFAYKSISPKEPKSGKLIGGSHLVTTTAEYQYRIYPDWWAAIFYDTGLVSDKFDHRALHSGAGVGVRWISPIGAIKFDIATPVKSPNNKRGVQFYIGLGSEEGHHHHHH | not soluble
MLIRPNKVQKVGNLFMDTVHEEEIRLLNQLYDTLMKKDVEKADQLMDELLVDLEDHFTTEEELMREFEFFAYPMHKAEHDTMRKRFKEVYDKWKKEKNPEEVVRFLKEEFVPWLKSHVARWDSTTAQQLGD | not soluble
SIVKMLLFQETARHSRAEGEPGASHSGSKQDKVPSSEEGTGCDASVCEAAAATHCEKDVTVSDTENVSSSKNILSHDPDVGTDTMEKEEKTHHACQEMELKVDQSSESTNPTEAELSSETRQGLQLTSGDVGIDQFLRQGDEPKSVNSDASDPGSVRLEPLTPSEVLEYEATEILHDGDDPSANTSDTVSDQTGGSPGGSNPCRAETAVDLADGEERS | soluble
MGSDKIHHHHHHKEQNLDDFEQEYQNYQVNDPLSGYNKAMTSFNVALYDYGLRPVLKGYNAITPEFIRLGARNFFDNLLAPLRFVSNVLQFKFEEAGEEFKRFTANTIMGFGGLMDVASKMGLKKHPADLGTVLAHWGVGSGFHIVLPILGPSNLRDTLTLPATWYASFTAYIDPTWASIAISAYGFGNELSFRLDEIDEIYHNTPNLYPFLRDAYEQRRNELSK | not soluble
MYVSSPTLTDKVSKMICQDILTGELKPGQKLVVAELKEKYNVGASPIREALVQLSWSKYVKLAPQKGCWVAPVCKHELNDLYESLRMTASFLLKKAIMTGDENWELDVLTSYHKLSRVNLDQGFCWREWEERHYHFLEALLEGANSHNLFTFFRDILNQIKRYHYFAMQVLGTNNQGHCNIDEQEMIMKLSLSKNSDDAVQFLDRYLLKSLQCVETAIDNPL | soluble
MRSDVIKKGLERVPHRSLLKALGITDDEMRRPFIGIVSSWNEIIPGHVHLDKVVEAVKAGVRMAGGVPFVFPTIGICDGIAMDHRGMKFSLPSRELIADSIEIVASGFPFDGLVFVPNCDKITPGMMMAMGRLNIPSVLISGGPMLAGRYNGRDIDLITVFEAVGGYKVGKVDEETLKAIEDLACPGAGSCAGLFTANTMNSLAEALGIAPRGNGTVPAVHAKRLRMAKEAGMLVVELVKRDVKPRDIVTLDSFMNAVMVDLATGGSTNTVLHLKAIAESFGIDFDIKLFDELSRKIPHICNISPVGPYHIQDLDDAGGIYAVMKRLQENGLLKEDVMTIYLRKIGDLVREAKILNEDVIRPFDNPYHKEGGLGILFGNLAPEGAVAKLSGVPEKMMHHVGPAVVFEDGEEATKAILSGKIKKGDVVVIRYEGPKGGPGMREMLSPTSAIVGMGLAEDVALITDGRFSGGSHGAVIGHVSPEAAEGGPIGIVKDGDLIEIDFEKRTLNLLISDEEFERRMKEFTPLVKEVDSDYLRRYAFFVQSASKGAIFRKPAAALEHHHHHH | soluble
DYKDDDDKVKLTCYQNGVSFTGGKAISEAKAASSQACQELCEKDAKCRFFTLASGKCSLFADDAALRPTKSDGAVSGNKRCILLED | soluble
MGSDKIHHHHHHETTSTQTVDEQAVFNDTQSAMLAVNGLHKLMWTGDLSSSAFYGGYDMLMIWYEVMGDDLVYTYSNAQFQKQAQWSSHRNATIGSATHFYRLLQYFISNSSMIIDNIDAAEGLESERNYIKGQAHFYRAFAYFTMVQMYGGRYKAEGDNTQLGVVIRNDNSTEPRARASVEEVYTQINEDIDLAIQLLGATEEKRTNKSHIDLHVARGLKARILLTQGKWLEAAEMAKLVVDLSGAKLQDDTYTTLNDRFSDQSNTEWLWGSNPLLQQAPNLTHFHGYMSNEIISYNGNTPRAIYNKLYDKISDTDVRKGIWFPRATDPNTLPRPIRAECNSKAYANYMANKFIVSDPTTKGGRDVPFMRLPEMMLIMAEGYARAGEPGKAAQALYPLASHRDPEYTLSTKTGENLIEEVMTQRRIELWGEGFRWFDLKRLNMDLDRGPAPRPEVFPNGLIEYWNKDAMPKVVDPEASNYNMYGDGTVTGNGNRYRPAGHRDWQWAIPDKETQLNPLCEPNP | not soluble
MENFEIWVEKYRPRTLDEVVGQDEVIQRLKGYVERKNIPHLLFSGPPGTGKTATAIALARDLFGENWRDNFIEMNASDERGIDVVRHKIKEFARTAPIGGAPFKIIFLDEADALTADAQAALRRTMEMYSKSCRFILSCNYVSRIIEPIQSRCAVFRFKPVPKEAMKKRLLEICEKEGVKITEDGLEALIYISGGDFRKAINALQGAAAIGEVVDADTIYQITATARPEEMTELIQTALKGNFMEARELLDRLMVEYGMSGEDIVAQLFREIISMPIKDSLKVQLIDKLGEVDFRLTEGANERIQLDAYLAYLSTLAKK | soluble
MKSILEQLSSMTVVVADTGDLDSIKKFQPRDATTNPSLILAAAKNPDYVKLIDKAIESSENTLPNGFSEIELIKETVDQVSVFFGKEILKIISGRVSTEVDARLSFDTEATVKKARKLINLYKNFGIEKERILIKIAATWEGIKAAEILEKEGIKCNLTLLFNFCQAVTCANANITLISPFVGRILDWHKAKTGKTSFIGAEDPGVISVTQIYKYFKEKGFKTEVMGASFRNLDEIKELAGCDLLTIAPKFLEELKREKGVLIRKLDASTKINNSIDYKFEEKDFRLSMLEDQMASEKLSEGITGFSKAIEELEELLIERLSEMKNHKLISAN | soluble
GMPAPLRFSSDKPLLLLIDMQQAVDDPSWGPRNHPQAEQACAGLLQAWRARGLPLIHIRHDSVEPNSTYRPGQPGHAFKPEVEPRPGETVIAKQTNSAFIGTGLEALLRANGWLELVVAGVSTSNSVEATVRMAGNLGFAVCLAEDGCFTFDKTDWHGRRRSADEVHAMSLANLDGEYCRVCGSADILAALGNIAGAA | soluble
MAHHHHHHMATCTLSVARFGRPSTFAHRRVRWLPPYDGNSTCLDWWLPTDAEAADTAADGGAAAIRVRALAVILPGLTGSSKEFYVRRMARQLLRAHMATCVLTSRGVADTHLERPQIFSALFAKDLRHIMQACMTREKVQECLLRRISPLQSSDHHKGAVPIIGVAFSLGGRILTNYVSEQGEAEAPSGFDAVYTITSPHNVSDGAAALRMLLSKLLYGSTLYKRLRAYYERHKNVLQNLPDIDKKLLMDGDSPLVKRLRTVQDFGEFITGPHVGFPGAEAYYVAASSFRRLHHSRMPQVCVVVANDPIYGPPQPAPRWLHLIDMHCGGLVYVEMPVGGHLGFLGCPWSEWTQAPNEMEHLVLRSLIHFIKSADTQAAEAKTNE | soluble
MIDETAEEIREMRTHSSSVVAVKAARALEALLDSDYPTVAAYVRALERNSTALRRANPSHASLVTTQREVVSRVRDADPASIPEAQEVTAAAIDDVVARVNMGKHDAAAATAEHITDGQTLLTHDYSSTVLEAIELAAQDGAHLDVFVTEARPRHLGRKTVRALAQLDRVDPTLIVDGAAGHVLDDCDRVLLGMDCIVADTYYNRVGTYPIVAAAADAGTPVTVAGSAAKLVADGFQFTNDFRDTSEVIREPPAGFTVENPAYDATPTRLLDAVVTEDGRRTEFPLESLEHHHHHH | not soluble
MDGDFRTDFVREPGALKHHPALVLNADYRPLSYYPLSLWPWQEAIKAAWLDRVDIIAEYDEVVRSPSVVLRIPSVVVLKDYVKPQKRVAFTRFNLFLRDEFRCQYCGGKGDLTFDHVVPRAAGGVTSWENVVAACAPCNLRKGSKSLRQANMSLRRPPRRPQAEELQNVGRKFPPNHLHESWMDFLYWDAELDALEHHHHHH | not soluble
QQEKEFLESYPQNCPPDALPGTPGNLDSAQEKALAELRKLLEDAGFIERLDDSTLLRFLRARKFDVQLAKEMFENCEKWRKDYGTDTILQDFHYDEKPLIAKFYPQYYHKTDKDGRPVYFEELGAVNLHEMNKVTSEERMLKNLVWEYESVVQYRLPACSRAAGHLVETSCTIMDLKGISISSAYSVMSYVREASYISQNYYPERMGKFYIINAPFGFSTAFRLFKPFLDPVTVSKIFILGSSYQKELLKQIPAENLPVKFGGKSEVDESKGGLYLSDIGPWRDPKYIGPEGEAPE | soluble
